# According to the DeepSol protein solubility set:
# Experiment: soluble on expression in E. coli; label from the status in PepcDB or PDB records
row,Sequence,soluble on expression in E. coli
1,SMQGPRTRARLGANEVLLVVGGFGSQQSPIDVVEKYDPKTQEWSFLPSITRKRRYVASVSLHDRIYVIGGYDGRSRLSSVECLDYTADEDGVWYSVAPMNVRRGLAGATTLGDMIYVSGGFDGSRRHTSMERYDPNIDQWSMLGDMQTAREGAGLVVASGVIYCLGGYDGLNILNSVEKYDPHTGHWTNVTPMATKRSGAGVALLNDHIYVVGGFDGTAHLSSVEAYNIRTDSWTTVTSMTTPRCYVGATVLRGRLYAIAGYDGNSLLSSIECYDPIIDSWEVVTSMGTQRCDAGVCVLRE,soluble
2,MGSDKIHHHHHHMNELDIIKIISKNLSYSNGVEKGIGDDCAVFKFENQHLVVTTDMMFKSTHFPSILTPFQIGMRVVTANVSDIAAMCAKPLGMVISMGFDNPKKTFIDEMSKGINFISKEYGCPIAGGDTNKAPELTLSGTAFGITDNPIYRGGIIGEDICITGDVGKVNCALKLLEMKDKGILGNIEFEKTMSEFPRIMKKLAEPKARVKEGLLLNKIITSCCDISDGLSKDLNYTGNFEINSKNLLNSVSREVIEFCEKFDMDLLKTVLNSGEEFELLFTTPDFKKAEEKLKDINSVTKIGKVVESGKTVDGISVELEGYVHKW,not soluble
3,MKFGNFLLTYQPPELSQTEVMKRLVNLGKASEGCGFDTVWLLEHHFTEFGLLGNPYVAAAHLLGATETLNVGTAAIVLPTAHPVRQAEDVNLLDQMSKGRFRFGICRGLYDKDFRVFGTDMDNSRALMDCWYDLMKEGFNEGYIAADNEHIKFPKIQLNPSAYTQGGAPVYVVAESASTTEWAAERGLPMILSWIINTHEKKAQLDLYNEVATEHGYDVTKIDHCLSYITSVDHDSNRAKDICRNFLGHWYDSYVNATKIFDDSDQTKGYDFNKGQWRDFVLKGHKDTNRRIDYSYEINPVGTPEECIAIIQQDIDATGIDNICCGFEANGSEEEIIASMKLFQSDVMPYLKEKQ,soluble
4,MERNELFDLQTLSTRRKIIDRIQVTRMNTGKVDLKTSEFFEQQETQTRSKKKYIWSTGKSKLRRHFFVNRTLPTMKQH,not soluble
5,MIHEITLDGKIVRYKVVEKPVKYVTLRFLEDGTLLVVTPSKEIVREVLIKKRNWILSKLSIIEEAKELAGEGFPLFGRFYSLEIGEKFEIDDKNRIIIYPGIDVLRDWIKKEVKRRAQEISKEFGVAPKRIYVRVMKTKWGSTTWRKSVTLNLSSVALPEELFHYLVIHELAHLIELNHSKRFWSIVARYHPDYKEKRRELKKWWFIVHLNETWRAILQWPGGGSSSSWALEHHHHHH,soluble
6,MHSSILLLLSFASITTACPGLLNIFGGAGGGGCGGCGGGCGGGCGCAPPPPPCCGGGCGGCGRKKRSLPEKPTFVGIADSGDDVMCNTPALKKIILENIQTTASDSSKAINTVLESRQIQRFVVVCSEKPFVFTFRADAAYCGATKNGHNCHAFAM,not soluble
7,LQEPMYVYSHDGLLIAIFGEIRRYPVQIKEVPEQLKQAFLATEDARFYEHSGIDYKGIARAIWLLATTNEKRVPGGSTITQQVARQFFLNSEYSYKRKLAEILLARKIESQLKKDEILELYLNKSFFGNRAYGIAAAAEFYYGKKLNELNLDEMASLAGIPKFPSS,not soluble
8,MGSDKIHHHHHHMQELLCDRGKGRHADPMQNKPDTPPLSRFHQFRTADLDEARALVARNFCGHRLERQAREDAFDACQNRAGGNGLFYNYIRYGADVEIEPGELGSFYLIQVPIRGQALIRNGRTEVETGSAIASVLNPDRHTRMRWLAGCEQVLLQIDRNRLTAVAETLTGTALQSPVRFDPQIDRARPEMQRWLALFRRAVSAVDHGALLDPDQALSRALVEDELIAGFLRAQPSSIAPLLERPETGPLSPHVRRARDFMQAHLADPLTLSQIAAAAGTSPRNLQLGFSQLLEMTPLAYLRVLRLNYARYLLRESPPQVTIASIAGAAGFSHLGRFSAQYAARFGEGPSQTRKQHYLI,not soluble
9,METTKTNVLEAGAKVLQSNGPVGKLDIYLVGFHPMKDAPEQQMEAHHYCQQVNQDLAQCALYDGNTAEANLTGIEYIISESLFAQLPAQERAFWHPHNGEILSGQLSAPNLPLVAEKELMRSKMNSYGKTWHTWHSRKGTAPGDTLPLGEPMLAWSFSRDGEIQQPLIEQRDKAVTISTAERRADRKDLTELAKPQHGVDALHRHFPEATPIPGVVDAEATAQLEHHHHHH,soluble
10,DDDGEHGGRRAALVVTDPLTRTECSACHMAYPAALLPARSWTALMADLPNHFGEDASLDEASRGQIESYLVANAADSSGAGRALRGLVQTDTPLRISELPWFKRKHADEVSPRMLEKARSMSNCAACHTGAERGLFDDD,soluble
11,MSLDYTYADDSLTLHTDMYQINMMQTYWELGRADLHAVFECYFREMPFNHGYAIFAGLERLVNYLENLTFTESDIAYLREVEEYPEDFLTYLANFEFKCTVRSALEGDLVFNNEPLIQIEGPLAQCQLVETALLNMVNFQTLIATKAARIKSVIGDDPLLEFGTRRAQELDAAIWGTRAAYIGGADATSNVRAGKIFGIPVSGTHAHSLVQSYGNDYEAFMAYAKTHRDCVFLVDTYDTLKAGVPSAIRVAREMGDKINFLGVRIDSGDMAYISKRVREQLDEAGFTEAKIYASNDLDENTILNLKMQKSKIDVWGVGTKLITAYDQPALGAVFKLVSIEGEDGQMKDTIKLSSNAEKVTTPGKKQVWRITRKSDKKSEGDYVTLWNEDPRQEEEIYMFHPVHTFINKYVRDFEARPVLQDIFVEGKRVYELPTLDEIKQYAKENLDSLWEEYKRDLNPQKYPVDLSTDCWNHKMNLLEKVRKDVKHLTETVNKEAEGHHHHHH,soluble
12,MLQSGEWAYTEKLKEHFESPKNVLQGNDTSAFDGVGMEGNLQCGDQMMVAIKVDKESEKITDCQWKTYGCASAIASTSILSEMVKGMTLDQAFNISPKEVAKELGGLPENKIHCSVLGDKALRAAINDYFIRNGMSDRVQKVQARTVCQCMNVTDHDIEEAVLEGARTFYELQEHTKISTVCGQCREDAENELQKYIHLHFGS,soluble
13,MSDGKIIHDPVHGSMKIPEELIKLVDTPEIQRLRYIRQLGLANLVYPGANHSRFEHSLGVWYLAKKLSSELDIPRDEALLVQISALLHDIGHGPFSHTFERVYKERLKIGDHMEISRKIIEGKIDIVENGGEIPDIISDLGYSPKEVGELICGVHKKKYLSMIINGDIDVDQLDYLARDAHYTGVAHGIIDLERLLNVMKIHDNELVVDEKGLEAVEGMLVARSLMYSRVYFHRTVKIAEAMLIKGVEFALDSGELFDFWKMTDDRLIVELEDIGGFPSEIIQKIRRRELYKPAVIVGPQDLTGDERRIIASLYKNTKKIRELENELADRVGASEGEVIIELSVPELIISEPRLKQIEISILLGDGKKEPLTKVTPLASAIKRRQTPRWILIIATPPNYVEKVKSVWRKVIF,not soluble
14,MSAATPLIVQQAEAEQLLARIDVLQAMRQLFLDLAAGQALQPAQQLVEFPAGRGDFINYLGVLAQEQVYGVKTSPYIVREQGPLVTAWTLLMSMQTGQPLLLCDAARLTTARTAATTAVAVDALAPAEACRLALIGSGPVAHAHLQYVKGLRDWQGVRVHSPCLDERRLQSLRAIDPRAEAAGSLEEALDEADVILLCTSSARAVIDPRQLKRPALVTSISTNAPRAHEVPAESLAAMDVYCDYRHTTPGSAGEMLIAAEQHGWSPEAIRGDLAELLSAQAPRPEYRRPAFFRSIGLGLEDVALANALYRLRQAG,not soluble
15,MAHHHHHHMNDERVLFLTSSTCITICENQIGIDVLLKTDILHNAVILCESANPDLAFEALSIISKIAYAANHQQICILISCNVIKALKKILNNMKIKPGARARACNALGNIGCETASEVELLIKNDVFPLLVDIFQTDNDFNTKIEAAYAVCACLSKANQKQVGYIISCTATTNRLGQNICMQLIADMLELVSESDPMNNGSVKLCKSILRGLENILDKGDDETRDLSLWENPYVFMFKEVQGDIKLFQMQFFPEYYVVNKTYDILAKYFSLTSTWNNRK,not soluble
16,SLKKWLVTIAALWLAGCSSGEINKNYYQLPVVQSGTQSTASQGNRLLWVEQVAVPDYLAGNGVVYQTSDVKYVIANNTLWASPLDQQLRNTLVANLSTQLPGWVVASQPLGSAQDTLNVTVTEFNGRYDGKVIVSGEWLLNHQGQLIKRPFRLEGMQTQDGYDEMVKVLASVWSQEAASIAQEIKRLP,soluble
17,MKYISPGFVDAHSHIGMIPDGLEWEFQEANDFYSPIAPHLRAVDGFDPYDEAFKEAIAGGVTTVATGPGSANVMGGIGLLAKTYEEGFEKIIKPEAFIKMALGPKRPREYKSKYPYPTTRMGTVALMRTWFKRAREFMEGKIKTDNIDEEEIEMLRLLARALKREIQVKIHLSTSPDEIYAAIRIIKEFNLNATIDHAFGSQLVADMLSREGIPVIYGPPMITRIASFFRYVDDKAPVLLFKKGVNVSIMTDHPVLPEKHLRLLAAVVARNGLSLDDALKLITINPAKALGIDRFVGSLEHHHHHH,not soluble
18,MSRITQVHRILEQKHLDAIIILSDYNRRYLSGFTGTSGALIISKDKQYLITDFRYIDQATKQAPNYEIINRKSTIIGEIKELLHQENFENVGFEGHHVSYDTYLELNKSRISLISISNTVDKIRDVKDADEIALIQKAANIVDETYEYILTVVKAGMTEKELKAILESKMLELGADGPSFDTIVASGHRGALPHGVASDKIIEKGDMITLDFGAYYNGYCSDITRTFAIGEPDPKLKEIYQIVLESQMKAINEIRPGMTGAEADAISRNYLESKGYGKEFGHSLGHGIGLEIHEGPMLARTIQDKLQVNNCVTVEPGVYIEGLGGIRIEDDILITENGCQVFTKCTKDLIVLT,not soluble
19,MALYQRWRCLRLQGLQACRLHTAVVSTPPRWLAERLGLFEELWAAQVKRLASMAQKEPRTIKISLPGGQKIDAVAWNTTPYQLARQISSTLADTAVAAQVNGEPYDLERPLETDSDLRFLTFDSPEGKAVFWHSSTHVLGAAAEQFLGAVLCRGPSTEYGFYHDFFLGKERTIRGSELPVLERICQELTAAARPFRRLEASRDQLRQLFKDNPFKLHLIEEKVTGPTATVYGCGTLVDLCQGPHLRHTGQIGGLKLLSNSSSLWRSSGAPETLQRVSGISFPTTELLRVWEAWREEAELRDHRRIGKEQELFFFHELSPGSCFFLPRGTRVYNALVAFIRAEYAHRGFSEVKTPTLFSTKLWEQSGHWEHYQEDMFAVQPPGSDRPPSSQSDDSTRHITDTLALKPMNCPAHCLMFAHRPRSWRELPLRLADFGALHRAEASGGLGGLTRLRCFQQDDAHIFCTTDQLEAEIQSCLDFLRSVYAVLGFSFRLALSTRPSGFLGDPCLWDQAEQVLKQALKEFGEPWDLNSGDGAFYGPKIDVHLHDALGRPHQCGTIQLDFQLPLRFDLQYKGQAGALERPVLIHRAVLGSVERLLGVLAESCGGKWPLWLSPFQVVVIPVGSEQEEYAKEAQQSLRAAGLVSDLDADSGLTLSRRIRRAQLAHYNFQFVVGQKEQSKRTVNIRTRDNRRLGEWDLPEAVQRLVELQNTRVPNAEEIF,soluble
20,MTKDILILAVETSCDETSVSVIKNGRDILSNTVLSQIESHKRFGGVVPEVASRHHVEGITATINEALGDADVSIEDIDAIAVTEGPGLIGALLIGVNAAKALAFAYDKPLIPVHHIAGHIYANHIEEPLTFPLIALIVSGGHTELVYMKDHLSFEVIGETRDDAVGEAYDKVARTIGLNYPGGPQVDRLAAEGEDTYSFPRVWLDKDSYDFSFSGLKSAVINQLHNQRQKNIPIIEANVATSFQNSVVEVLTFKAIQACKEYGVQRLIVAGGVASNKGLRQSLADQCKVNDIQLTIPSPKLCTDNAAMIGVAGHYLYQQGRFADLALNGHSNIDLEEYSAE,not soluble
